Here are results for one substance from doi:10.1101/2021.02.22.432209.

This experiment addresses GST-PreScission-p62 FIR 4P (human) (UniProt Q13501). Description: SPR. (Surface plasmon resonance follows binding to a sensor surface in real time, without labels.)

Regarding “LC3B (1-125), His8-TEV-LC3B (from UniProt Q9GZQ8 1-120) (natural protein)”, the KD estimated from the kinetics of the sensorgrams is 80 nM and the half life was found to be 20 min.
